Consider one molecule from article PMC4300948 (Nanoscale, 2014).

Where no end group is shown, it is not given here.

Test [1] deals with physiologic human von Willebrand factor (VWF) (human, UniProt P04275 764-2813).
In test [2] the target is FVIII free human von Willebrand factor (VWF) (human, UniProt P04275 764-2813).

On to TRYLRIHPQSWVHQI (also: lipid-peptide bioconjugate, displayed on liposome surface) [VWF-binding peptide (VBP), FVIII-derived, decorated on liposomal nanoconstructs], for which the binding result in test [1] and in test [2] was “binds” throughout.
